Where two headings read alike, the source gives them in different places. Each block holds one binder with its values, some of them ahead of it.
B2: kdSRPK1, kinase inactive SRPK1 containing K109M (enzyme, UniProt Q96SB4 1-655, looked up)
chain: MERKVLALQARKKRTKAKKDKAQRKSETQHRGSAPHSESDLPEQEEEILGSDDDEQEDPNDYCKGGYHLVKIGDLFNGRYHVIRKLGWGHFSTVWLSWDIQGKKFVAMMVVKSAEHYTETALDEIRLLKSVRNSDPNDPNREMVVQLLDDFKISGVNGTHICMVFEVLGHHLLKWIIKSNYQGLPLPCVKKIIQQVLQGLDYLHTKCRIIHTDIKPENILLSVNEQYIRRLAAEATEWQRSGAPPPSGSAVSTAPQPKPADKMSKNKKKKLKKKQKRQAELLEKRMQEIEEMEKESGPGQKRPNKQEESESPVERPLKENPPNKMTQEKLEESSTIGQDQTLMERDTEGGAAEINCNGVIEVINYTQNSNNETLRHKEDLHNANDCDVQNLNQESSFLSSQNGDSSTSQETDSCTPITSEVSDTMVCQSSSTVGQSFSEQHISQLQESIRAEIPCEDEQEQEHNGPLDNKGKSTAGNFLVNPLEPKNAEKLKVKIADLGNACWVHKHFTEDIQTRQYRSLEVLIGSGYNTPADIWSTACMAFELATGDYLFEPHSGEEYTRDEDHIALIIELLGKVPRKLIVAGKYSKEFFTKKGDLKHITKLKPWGLFEVLVEKYEWSQEEAAGFTDFLLPMLELIPEKRATAAECLRHPWLNS
B3: full-length His-tagged CLK1 (enzyme)
chain: not shown

What was measured:
His-tagged SRPK1 [1] = molecular target: T1, His-tagged SRPK1 (UniProt Q96SB4 1-655); assay: pull-down
[2] = molecular target: B3; assay: displacement of 32P-phospho-GST-SRSF1 from His-CLK1 on Ni-resin
[3] = molecular target: B2; assay: as above
His-tagged SRPK1 [4] = molecular target: T1, His-tagged SRPK1; assay: pull-down; remark: listed apart in the source

binding result (His-tagged SRPK1 [1]): binds
B1: GST-tagged form of the CLK1 N-terminus (domain or fragment, UniProt P49759 1-160, looked up)
chain: MRHSKRTYCPDWDDKDWDYGKWRSSSSHKRRKRSHSSAQENKRCKYNHSKMCDSHYLESRSINEKDYHSRRYIDEYRNDYTQGCEPGHRQRDHESRYQNHSSKSSGRSGRSSYKSKHRIHHSTSHRRSHGKSHRRKRTRSVEDDEEGHLICQSGDVLSAR

Binder: B2
stoichiometry N [2]: 1

Binder: B3
Kd [3]: 16 ± 6 nM
binding result (His-tagged SRPK1 [4]): binds

Reference: PMC4941815 (Molecular cell, 2016)
